Reference: the DeepSol protein solubility set

Assay: soluble on expression in E. coli; label from the status in PepcDB or PDB records

Row | Sequence | soluble on expression in E. coli
1 | MGSDKIHHHHHHIEGPGTTENLKEFVTVDGKKDTQSGAFYLTTVGIRSATIFSAIKANFSDFQEVMSKKELMGDSSNSEYNRIQQYYMDSSKNAAIEQALKLAKVPYEMKFKGVYVLAMEDNSSFKGKIEVGDTVTGVDGKSFKSSEELMNYIKAQKVNQKVTVQFIQDGKAKEATGKLIELPTDKKAGIGIGLTDHTEIDSSIPVSIEAGDIGGPSAGLMFTLQTYEQLSHKDLRKGHEIAGTGTMNSQGIVGRIGGIDKKVVTASENGAEIFFAPDDEITSEMKKVEPKIKSNYQEAQEAAKKIGTKMKIVPVKTVQDALNYLEKLK | not soluble
2 | VSAPTKPHSPTFKPEPHSAANEPKHPAARPKHVALQQLTGAQAVIRSLEELGVDVIFGIPGGAVLPVYDPLFDSKKLRHVLVRHEQGAGHAASGYAHVTGRVGVCMATSGPGATNLVTPLADAQMDSIPVVAITGQVGRGLIGTDAFQEADISGITMPITKHNFLVRSGDDIPRVLAEAFHIAASGRPGAVLVDIPKDVLQGQCTFSWPPRMELPGYKPNTKPHSRQVREAAKLIAAARKPVLYVGGGVIRGEATEQLRELAELTGIPVVTTLMARGAFPDSHRQNLGMPGMHGTVAAVAALQRSDLLIALGTRFDDRVTGKLDSFAPEAKVIHADIDPAEIGKNRHADVPIVGDVKAVITELIAMLRHHHIPGTIEMADWWAYLNGVRKTYPLSYGPQSDGSLSPEYVIEKLGEIAGPDAVFVAGVGQHQMWAAQFIRYEKPRSWLNSGGLGTMGFAIPAAMGAKIALPGTEVWAIDGDGCFQMTNQELATCAVEGIPVKVALINNGNLGMVRQWQSLFYAERYSQTDLATHSHRIPDFVKLAEALGCVGLRCEREEDVVDVINQARAINDCPVVIDFIVGADAQVWPMVAAGTSNDEIQAARGIRPLFDDITEGHA | not soluble
3 | MNKVIKMLVVTLAFLLVLAGCSGNSNKQSSDNKDKETTSIKHAMGTTEIKGKPKRVVTLYQGATDVAVSLGVKPVGAVESWTQKPKFEYIKNDLKDTKIVGQEPAPNLEEISKLKPDLIVASKVRNEKVYDQLSKIAPTVSTDTVFKFKDTTKLMGKALGKEKEAEDLLKKYDDKVAAFQKDAKAKYKDAWPLKASVVNFRADHTRIYAGGYAGEILNDLGFKRNKDLQKQVDNGKDIIQLTSKESIPLMNADHIFVVKSDPNAKDAALVKKTESEWTSSKEWKNLDAVKNNQVSDDLDEITWNLAGGYKSSLKLIDDLYEKLNIEKQSK | not soluble
4 | FTANIKGLTQASRNANDGISIAQTTEGALNEINNNLQRVRELAVQSANSTNSQSDLDSIQAEITQRLNEIDRVSGQTQFNGVKVLAQDNTLTIQVGANDGETIDIDLKQINSQTLGLDTLNVQQKYKVSDTAATVTGYADTTIALDNSTFKASATGLGGTDQKIDGDLKFDDTTGKYYAKVTVTGGTGKDGYYEVSVDKTNGEVTLAGGATSPLTGGLPATATEDVKNVQVANADLTEAKAALTAAGVTGTASVVKMSYTDNNGKTIDGGLAVKVGDDYYSATQNKDGSISINTTKYTADDGTSKTALNKLGGADGKTEVVSIGGKTYAASKAEGHNFKAQPDLAEAAATTTENPLQKIDAALAQVDTLRSDLAAVQNRFNSAITNLGNTVNNLTSAR | soluble
5 | MSLKVGISMFNILQSTQLSSNTFDFWLEAPRIATHAQAGQFVILRIDEKGERIPLTIAETNPQAGSIRIIFQVIGKTTAALSQLKTSDSLLDITGPLGMPTEVKQYGTVMVVGGGVGIAAIYPIIKALKEAGNRVITILGARTAELVLLQEECRRYSDELIITTDDGSLGKKGLVTEAMEEVIARESVACSWAIGPSIMMKFCTLTAEKHQLPIYVSLNPIMIDGTGMCGGCRVTVDGTMKFACVDGPEFKGNEVNWDEFINRMKQYQEEEAVCFTDRLKEQVEKNGEGGSHHHHHH | soluble
6 | MGSSHHHHHHSSGLVPRGSHMASEVDKRREINNEHPLLMMPLYANGEEFNQGKYTFWGGDTLTGKWENIPDDLKPYTVIQLHPDDLPKRDGAARDFYEHMLEEAAKYVNPKTGKNEPIPVILTVYTAGNMPYYTSAHWLSTSWIDKMYQKYPNLHGIFSTANYWIWANDIENKAADYLKVSAKNGGYFIWAEQNNGSAIEKAFGKNGKIAFQKSVDKYWKNLIFMFKNTPAAEGNDSTTESYMKGLWLSNHTYQWGGLMDTWKWYETGKWKLFASGNIGKSQGDRQWLTEPESMLGEEALGVYLNGGVVYNFEHPAYTYGVNNKESLLFSEVIKEFFRYVIAHPAPSKEKVLEDTKVFIHGDYSNKGNGKFFVNVNTDREQTPLYMTGRYNVIPAIPGVLKTDKLKESVSSSRIQIKEITSPEFSSTQARKEYLNKLYPMNYEGDIFAQKLDNRWFVYNYKVNENVKQTGKLKFNSLEMNVEFEPHTYGIFERISNGLKVNLNNFRTNKDSLWSNAQDANQAKKLPQLTKKGAIKWIEEHYIKDTQFGEKRVTKIVLRGIDKLPTIHSLSGTNNSYDQPSLNFDQKNHMVTITINSNGNLEFELHF | soluble
7 | MTLVIGLTGGIASGKSTVANMLIEKGITVIDADIIAKQAVEKGMPAYRQIIDEFGEDILLSNGDIDRKKLGALVFTNEQKRLALNAIVHPAVRQEMLNRRDEAVANREAFVVLDIPLLFESKLESLVDKIIVVSVTKELQLERLMKRNQLTEEEAVSRIRSQMPLEEKTARADQVIDNSGTLEETKRQLDEIMNSWALEHHHHHH | soluble
8 | GAMGNKEKADQQKAITDIVALENALDMYKLDNSVYPTTDQGLEALVTKPSSPEPRNYRNGGYIKRLPKDPWGNEYQYMSPGDKGTIDIFTLGADGQEGGEGAAADIGNWNMQDFQ | soluble
9 | MGSDKIHHHHHHMSETYPILIHLGEKLNRVIVGQSQLIQQLLVGLLSGGHIILEGVPGTGKTLLVKVLARLIQADFHRVQLTPDVLPSDITGTNIFDLNNRNFTLKKGPVFTEVLLADEINRTPPKTQAALLEAMEEMQVTLDGESLPLPDLFWVIATQNPLEFEGTYPLPEAQLDRFLFKLVVDYPDQTAEKQMLLNRQAGFAARRSDINSLQPIATVTDILEARQAVKAVKVSESIIDYLLALVRTSRQYPDLALGASPRAAGAWLQTSQAVAWLEGRDFVTPDDIKAVASPLLRHRLILKPEAMLDGLQIDAVIAAVVNQVAVPR | not soluble
10 | MPFTLGQRWISDTESELGLGTVVAVDARTVTLLFPSTGENRLYARSDSPVTRVMFNPGDTITSHDGWQMQVEEVKEENGLLTYIGTRLDTEESGVALREVFLDSKLVFSKPQDRLFAGQIDRMDRFALRYRARKYSSEQFRMPYSGLRGQRTSLIPHQLNIAHDVGRRHAPRVLLADEVGLGKTIEAGMILHQQLLSGAAERVLIIVPETLQHQWLVEMLRRFNLRFALFDDERYAEAQHDAYNPFDTEQLVICSLDFARRSKQRLEHLCEAEWDLLVVDEAHHLVWSEDAPSREYQAIEQLAEHVPGVLLLTATPEQLGMESHFARLRLLDPNRFHDFAQFVEEQKNYRPVADAVAMLLAGNKLSNDELNMLGEMIGEQDIEPLLQAANSDSEDAQSARQELVSMLMDRHGTSRVLFRNTRNGVKGFPKRELHTIKLPLPTQYQTAIKVSGIMGARKSAEDRARDMLYPERIYQEFEGDNATWWNFDPRVEWLMGYLTSHRSQKVLVICAKAATALQLEQVLREREGIRAAVFHEGMSIIERDRAAAWFAEEDTGAQVLLCSEIGSEGRNFQFASHMVMFDLPFNPDLLEQRIGRLDRIGQAHDIQIHVPYLEKTAQSVLVRWYHEGLDAFEHTCPTGRTIYDSVYNDLINYLASPDQTEGFDDLIKNCREQHEALKAQLEQGRDRLLEIHSNGGEKAQALAESIEEQDDDTNLIAFAMNLFDIIGINQDDRGDNMIVLTPSDHMLVPDFPGLSEDGITITFDREVALAREDAQFITWEHPLIRNGLDLILSGDTGSSTISLLKNKALPVGTLLVELIYVVEAQAPKQLQLNRFLPPTPVRMLLDKNGNNLAAQVEFETFNRQLNAVNRHTGSKLVNAVQQDVHAILQLGEAQIEKSARALIDAARNEADEKLSAELSRLEALRAVNPNIRDDELTAIESNRQQVMESLDQAGWRLDALRLIVVTHQ | soluble
11 | MSLQIVFPTPNQVEMQTGNLILGKKVSMYAEDTTAFYLNLFREEVLSHTPIKWQKKESKADICWITDSSLPPEGYRIKIHPQQMVISASDKGGFTYAVQTLRQWVAGSAGSITFACASVTDYPRTQWRCFLLDSGRQFQKITTIRKYIDMASLLKMNYFHWHLTEGLGWRIEIKQYPHLTRTGGSVGKGEEQQGFYTQEEIRDIIEYARQRNITIVPEIDMPGHAEAALSAYPELGCFGLPVEIPQSGFTQNIFCAGKDGTLRFLKNVLDEVCALFPSPYIHLGGDEAPKGNWDQCPDCRKRITTEGLKDSHDLQLWFSAQMANYLKSKGRKAIFWGDVVYHDGYPLPDNTVIQWWNYRGHKDLALRNAVKHHYPVICSSNYYTYLNFPVTPWKGYTEARTFDLKDVYLNNPSDKAISEKNPLILGMSCALWTDDGVTERMIDRRLFPRILALSEQMWHEGEALDFDRFYRNILHRKAWFEEAGFEFGPALKEDVTKDYKWDEGHHHHHH | soluble
12 | RVKGTFNKYSQLRSMSGMNGAQVAQRVLQAAGIYDVQVRHVSGSLTDHYDPRTKTVNLSDPVYNATSVAALGVAAHECGHAIQHAKSYAPLSIRS | not soluble
13 | MTTKEFEDTWAYNTIGSPFPDNPVRVKGQQNMYVALWYKFGKPIHGRAWNDNGNVECSFPYNKVELTGARDLGGQIQILTATEQDPTEQFKKTGFWYEWRPYKDRVNDQLLQLVRCGQSTPVIMKTKDGKDLLGYIDMSTEVAAVGVSGKSEQVAGGPIQDMLVLFRNVKAPPKGIKIYDDTWLDLKYRDPFPAARNPIAAGGRKVKSDDGTEMFQYVALWYEHGQPVFGRAYPDSADKTLANFGWGGQENAGAEIGSFQMLVVPDPDILGFEYKWIPYKEAKAGGPFKPLHVGECTPCLLKDANGTERLGNLHMGMEKATAGLAGKDSAVSGPAVGDFLVLCRN | soluble
14 | MGSDKIHHHHHHTVPTFYLFGLLIMHNAAQHNYVISLTTEQKRRKHITEEFGKQNIPFEFFDAITPDIIEETAKKFNITLDRSPKAKLSDGEIGCALSHIVLWDLALENNLNYINIFEDDIHLGENAKELLEIDYISDDIHVLKLEANGKMFFKQPKSVKCDRNVYPMTVKQSGCAGYTVTAKGAKYLLELVKNKPLDVAVDSLVFEDFLHFKDYKIVQLSPGICVQDFVLHPDNPFESSLQEGRDRVHGNQRKSSILEKIKNEFGRVKIKMFGKQVPFK | not soluble
15 | MRGSHHHHHHGSTMDIKPAFGTNQEDYASYIMNGIIKWGDPVTRVLDDGELLVQQTKNSDRTPLVSVLLEGPPHSGKTALAAKIAEESNFPFIKICSPDKMIGFSETAKCQAMKKIFDDAYKSQLSCVVVDDIERLLDYVPIGPRFSNLVLQALLVLLKKAPPQGRKLLIIGTTSRKDVLQEMEMLNAFSTTIHVPNIATGEQLLEALELLGNFKDKERTTIAQQVKGKKVWIGIKKLLMLIEMSLQMDPEYRVRKFLALLREEGASPLDFK | soluble
16 | MSGEPELIELRELAPAGRAGKGRTRLERANALRIARGTACNPTRQLVPGRGHRFQPAGPATHTWCDLCGDFIWGVVRKGLQCARLSADCKFTCHYRCRALVCLDCCGPRDLGWEPAVERDTNVDEPVEWETPDLSQAEIEQKIKEYNAQINSNLFMSLNKDGSYTGFIKVQLKLVRPVSVPSSKKPPSLQDARRGPGRGTSVRRRTSFYLPKDAVKHLHVLSRTRAREVIEALLRKFLVVDDPRKFALFERAERHGQVYLRKLLDDEQPLRLRLLAGPSDKALSFVLKENDSGEVNWDAFSMPELHNFLRILQREEEEHLRQILQKYSYCRQKIQEALHACPLGLEHHHHHH | not soluble
